The target in one experiment is mNeon PPM1H (human) (UniProt Q9ULR3). The experiment in a line: MST; unlabeled Rab titrated (16 serial dilutions) against 100 nM fluorescent mNeon PPM1H form; Monolith NT.115; 30 min in the dark in a reaction buffer; 3 independent measurements with different protein preparations.
The next experiment deals with T1, mNeon PPM1H (human, UniProt Q9ULR3 1-514).
T1 construct: PPM1H phosphatase, human, full length; mNeon inserted into loop 1 (residues 115-133) at position 125; mNeon is the fluorophore read in MST; not measured here; also called HisSUMO-mNeon PPM1H; His SUMO mNeon PPM1H; not shown: His-SUMO, N-terminal, cleaved; mNeon, internal (in loop 1 at position 125), kept
T1 sequence (looked up): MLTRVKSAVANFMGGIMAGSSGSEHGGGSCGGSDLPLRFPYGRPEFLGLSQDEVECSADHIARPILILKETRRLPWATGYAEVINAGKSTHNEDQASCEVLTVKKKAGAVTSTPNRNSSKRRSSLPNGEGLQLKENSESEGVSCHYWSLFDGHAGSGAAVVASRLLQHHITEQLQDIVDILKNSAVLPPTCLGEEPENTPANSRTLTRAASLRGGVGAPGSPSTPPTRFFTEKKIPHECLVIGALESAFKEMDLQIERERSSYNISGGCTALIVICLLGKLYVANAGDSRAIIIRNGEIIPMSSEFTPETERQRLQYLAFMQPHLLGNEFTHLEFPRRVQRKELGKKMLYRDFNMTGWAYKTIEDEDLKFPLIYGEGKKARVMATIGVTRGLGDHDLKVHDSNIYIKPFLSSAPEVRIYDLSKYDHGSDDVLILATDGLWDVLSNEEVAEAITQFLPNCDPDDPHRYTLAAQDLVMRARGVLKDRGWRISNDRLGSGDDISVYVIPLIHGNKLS
Described as above. Particulars: both partners purified.

Broadly, the Kd is a measure of binding affinity in units of concentration. Higher therefore signals a looser complex. For “Rab12 (Q101L) full length (from UniProt Q6IQ22-2 1-244) (natural protein)”, the Kd in the experiment with mNeon PPM1H (human) turned out to be 7400 nM.

B1: Rab10 (Q68L) full length (natural protein, human, UniProt P61026 1-200, looked up)
chain: MAKKTYDLLFKLLLIGDSGVGKTCVLFRFSDDAFNTTFISTIGIDFKIKTVELQGKKIKLQIWDTAGLERFHTITTSYYRGAMGIMLVYDITNGKSFENISKWLRNIDEHANEDVERMLLGNKCDMDDKRVVPKGKGEQIAREHGIRFFETSAKANINIEKAFLTLAEDILRKTPVKEPNSENVDISSGGGVTGWKSKCC
notes: also called His SUMO Rab10 (Q68L); non-phosphorylated Rab10; not shown: His-SUMO, N-terminal, cleaved
In turn, B1 yielded a Kd in the experiment with mNeon PPM1H of 1300 ± 900 nM.

B2: His Rab8A (Q67L) full length (natural protein, human, UniProt P61006 1-207, looked up)
chain: MAKTYDYLFKLLLIGDSGVGKTCVLFRFSEDAFNSTFISTIGIDFKIRTIELDGKRIKLQIWDTAGLERFRTITTAYYRGAMGIMLVYDITNEKSFDNIRNWIRNIEEHASADVEKMILGNKCDVNDKRQVSKERGEKLALDYGIKFMETSAKANINVENAFFTLARDIKAKMDKKLEGNSPQGSNQGVKITPDQQKRSSFFRCVLL
notes: Printed both as 'His Rab8A' and 'Rab8A-6XHis'; also called Rab8A-6XHis; non-phosphorylated Rab8A
Regarding B2, the Kd in the experiment with mNeon PPM1H was found to be 1400 ± 980 nM.

B3: thio-phosphorylated Rab8A (natural protein, human, UniProt P61006 1-207, looked up)
chain: MAKTYDYLFKLLLIGDSGVGKTCVLFRFSEDAFNSTFISTIGIDFKIRTIELDGKRIKLQIWDTAGLERFRTITTAYYRGAMGIMLVYDITNEKSFDNIRNWIRNIEEHASADVEKMILGNKCDVNDKRQVSKERGEKLALDYGIKFMETSAKANINVENAFFTLARDIKAKMDKKLEGNSPQGSNQGVKITPDQQKRSSFFRCVLL
modifications: thio-phosphorylated with ATPγS by MST3 kinase (residue not given); fully modified by PhosTag gel
notes: Rab8A GTPase, human, full length, non-prenylated, Q67L, thio-phosphorylated; Removal of His-MST3 before MST is not described for this preparation; also called thio-pRab8A; His pRab8A Q67L; source: E. coli, purified His Rab8A Q67L, then incubated overnight at 4°C with His-MST3 kinase and 2 mM ATPγS
Consider B3, for which the Kd with mNeon PPM1H worked out at 990 ± 630 nM.
